According to paper PMC2542413:

Assays:
[1] = target: YU2 gp140-F trimers (HIV-1 (primary isolate YU2) | not stated); experiment: SEC; gel filtration on a Superdex 200 26/60 prep grade column; trimers separated from lower molecular weight forms
[2] = target: soluble human 4-domain CD4 (human); experiment: ELISA; CD4 solution competition assay: Env trimers co-incubated with 2, 4 or 9 nM sCD4 in PBS at room temperature for 1 h; non-Env-bound sCD4 captured on plate-bound anti-CD4 RPA-T4 and detected with biotin-OKT-4

## YU2 gp140-F trimers
[1]
  stoichiometry N: 3
[2]
  half-maximal binding (with 2 nM sCD4): 7 nM
  half-maximal binding (with 4 nM sCD4): 13 nM
  half-maximal binding (with 9 nM sCD4): 26 nM
